Assay results from patent US20120219545A1.

Columns and labels:
[1] = molecular target: IgE of the serum pool of subjects 14, 47 and 48 (human); experiment: cell-based or functional assay
[2] = molecular target: serum IgE of subject 2 (human); experiment: ELISA inhibition; serum of subject 2 preincubated with rSCP, IgE binding to plate-coated boiled shrimp extract
[3] = molecular target: serum IgE of subject 43 (human); experiment: ELISA inhibition; serum of subject 43 preincubated with rSCP (printed 25 mg/mL), IgE binding to plate-coated boiled shrimp extract

mediator release (beta-hexosaminidase) from RBL-2H3 cells (% of total possible release) [1]: 30
mediator release (beta-hexosaminidase) from RBL-2H3 cells ([1]; scale: % of the release obtained with BS extract): 65
maximal inhibition [2]: 48%
maximal inhibition [3]: 79%
B1: recombinant shrimp sarcoplasmic calcium-binding protein (rSCP) (protein, not shown: small tags and cut ends)
chain: MAYSWDNRVKYVVRYMYDIDNNGFLDKNDFECLAVRNTLIEGRGEFSADAYANNQKIMRNLWNEIAELADFNKDGEVTVDEFKQAVQKHCQGKKYGDFPGAFKVFIANQFKAIDVNGDGKVGLDEYRLDCITRSAFAEVKEIDDAYNKLTTEDDRKAGGLTLERYQDLYAQFISNPDESCSACYLFGPLKVVQ
